Test results reported in patent US20250213684A1 (Novartis, published 2025).

Tests used:
[1] = biological target: T1, murine TIM-3 expressed in cells (murine, UniProt Q8VIM0 20-281); assay: flow cytometry on cells expressing murine TIM-3
T1 construct: whole, on cells; also called mouse TIM-3

[2] = biological target: T2, human TIM-4 expressed in CHO cells (human, UniProt Q96H15 25-378); assay: flow cytometry on CHO cells expressing human TIM-4
T2 construct: whole, on cells
T2 sequence (looked up): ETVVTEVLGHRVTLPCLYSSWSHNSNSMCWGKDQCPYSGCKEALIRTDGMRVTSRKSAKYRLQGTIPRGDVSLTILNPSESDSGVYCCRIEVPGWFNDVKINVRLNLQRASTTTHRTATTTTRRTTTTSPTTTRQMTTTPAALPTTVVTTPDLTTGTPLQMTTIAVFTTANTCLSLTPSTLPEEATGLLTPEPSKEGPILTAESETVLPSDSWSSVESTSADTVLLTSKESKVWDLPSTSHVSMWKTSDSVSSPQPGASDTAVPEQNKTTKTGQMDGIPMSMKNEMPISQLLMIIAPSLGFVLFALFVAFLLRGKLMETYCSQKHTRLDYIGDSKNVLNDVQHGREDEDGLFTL

[3] = biological target: T3, human TIM-3 expressed on cells (human, UniProt Q8TDQ0 22-301); assay: flow cytometry on cells expressing human TIM-3
T3 construct: also called huTIM-3; hTIM-3

[4] = biological target: T3, human TIM-3 expressed on cells; assay: flow cytometry on activated human PBMCs, CD4 gated
[5] = biological target: T3, human TIM-3 expressed on cells; assay: flow cytometry on activated human PBMCs, CD8 gated
[6] = biological target: T4, cynomolgus TIM-3 expressed on transfected cells (cynomolgus monkey, UniProt A0A2K5U3G7 22-294); assay: flow cytometry (Median FI-FITC), CynoTim-3-300.19 cells
T4 construct: whole, on cells; also called cynoTIM-3; cynomolgus monkey TIM-3
T4 sequence: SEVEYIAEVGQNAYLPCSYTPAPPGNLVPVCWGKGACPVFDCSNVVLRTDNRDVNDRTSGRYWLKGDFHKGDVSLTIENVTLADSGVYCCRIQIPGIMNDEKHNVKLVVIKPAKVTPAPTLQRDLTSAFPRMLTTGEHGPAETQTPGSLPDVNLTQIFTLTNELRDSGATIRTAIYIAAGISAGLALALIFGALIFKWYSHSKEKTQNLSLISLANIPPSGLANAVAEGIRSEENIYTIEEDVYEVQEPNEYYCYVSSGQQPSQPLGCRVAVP

[7] = biological target: T3, human TIM-3 expressed on cells; assay: flow cytometry, 300.19 huTIM3 cells, detected by secondary Ab-FITC
[8] = biological target: TIM-3 (antigen; species and construct not stated for the assay) (UniProt Q8TDQ0 22-202, limits assumed); assay: FACS competition binding against the parent murine ABTIM3; cells not named on the sheet
[9] = biological target: T3, human TIM-3 expressed on cells; assay: flow cytometry competition on 300.19 hTIM3 cells in presence of ABTIM3; signal is MFI of 0.51ug/ml 22C1-PE

T1 sequence (Q8VIM0 20-281): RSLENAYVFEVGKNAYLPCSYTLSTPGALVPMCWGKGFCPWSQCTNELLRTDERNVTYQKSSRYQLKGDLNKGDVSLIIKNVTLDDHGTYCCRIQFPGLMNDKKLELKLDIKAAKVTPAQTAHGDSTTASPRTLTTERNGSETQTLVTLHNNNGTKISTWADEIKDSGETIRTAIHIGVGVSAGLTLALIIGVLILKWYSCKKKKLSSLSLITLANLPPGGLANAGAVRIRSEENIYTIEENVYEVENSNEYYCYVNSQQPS

binding result [1]: no binding | binding result [2]: no binding | Kd [3]: 1040 pM | Kd [4]: 290 pM | Kd [5]: 300 pM | EC50 (read off the curve) [6]: ~0.3 µg/mL | EC50 (read off the curve) [7]: ~0.1 µg/mL | IC50 (read off the curve) [8]: ~0.2 µg/mL | IC50 (read off the curve) [9]: ~0.2 µg/mL
B1: ABTIM3 (antibody, V domains shown)
VH: QVQLQQPGAELVKPGASVKMSCKASGYTFTSYNMHWIKQTPGQGLEWIGDIYPGNGDTSYNQKFKGKATLTADKSSSTVYMQLSSLTSEDSAVYYCARVGGAFPMDYWGQGTSVTVSS
VL: DIVLTQSPASLAVSLGQRATISCRASESVEYYGTSLMQWYQQKPGQPPKLLIYAASNVESGVPARFSGSGSGTDFSLNIHPVEEDDIAIYFCQQSRKDPSTFGGGTKLEIK
notes: Murine monoclonal antibody; also called murine anti-TIM-3 antibody ABTIM3; parent murine anti-TIM-3 antibody
